Results: IntAct's records for PubMed 29039417

B1: BBSome complex member BBS4 (Homo sapiens), Q96RK4 (parent)
chain: MAEERVATRTQFPVSTESQKPRQKKAPEFPILEKQNWLIHLHYIRKDYEACKAVIKEQLQETQGLCEYAIYVQALIFRLEGNIQESLELFQTCAVLSPQSADNLKQVARSLFLLGKHKAAIEVYNEAAKLNQKDWEISHNLGVCYIYLKQFNKAQDQLHNALNLNRHDLTYIMLGKIHLLEGDLDKAIEVYKKAVEFSPENTELLTTLGLLYLQLGIYQKAFEHLGNALTYDPTNYKAILAAGSMMQTHGDFDVALTKYRVVACAVPESPPLWNNIGMCFFGKKKYVAAISCLKRANYLAPFDWKILYNLGLVHLTMQQYASAFHFLSAAINFQPKMGELYMLLAVALTNLEDIENAKRAYAEAVHLDKCNPLVNLNYAVLLYNQGEKKNALAQYQEMEKKVSLLKDNSSLEFDSEMVEMAQKLGAALQVGEALVWTKPVKDPKSKHQTTSTSKPASFQQPLGSNQALGQAMSSAAAYRTLPSGAGGTSQFTKPPSLPLEPEPAVESSPTETSEQIREK
partner: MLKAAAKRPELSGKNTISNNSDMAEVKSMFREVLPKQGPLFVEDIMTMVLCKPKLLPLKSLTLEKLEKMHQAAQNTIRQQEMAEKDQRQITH

Variants of: B1
Details: with bbip1_human BBIP1, A8MTZ0

Row | Variant | effect of a mutation on the interaction
1 | MAEERVATRTQFPVSTESQKPRQKKAPEFPILEKQNWLIHLHYIRKDYEACKAVIKEQLQETQGLCEYAIYVQALIFRLEGNIQESLELFQTCAVLSPQSADNLKQVARSLFLLGKHKAAIEVYNEAAKLNQKDWEISHNLGVCYIYLKQFNKAQDQLHNALNLNRHDLTYIMLGKIHLLEGDLDKAIEVYKKAVEFSPENTELLTTLGLLYLQLGIYQKAFEHLGNALTYDPTNYKAILAAGSMMQTHGDFDVALTKYRVVACAVPESPPLWNNIGMCFFGKKKYVAAISCLKRANYLAPFDWKILYNLGLVHLTMQQYASAFHFLSAAINFQPKMGELYMLLAVALTNLEDIENAKRAYAEAVHLDKCNPLVNLNYAVLLYNQGEKKNALAQYQEMEKKVSLLKDNSSLEFDSEMVEMAQKLGAALQVGEALVWTKPVKDPKSKHQTTSTSKPASFQQPLGSNQALGQAMSSAAAYRTLPSGAGGTSQFTKPPSLPLEEEPAVESSPTETSEQIREK [P501E] | with no effect
2 | MAEERVATRTQFPVSTESQKPRQKKAPEFPILEKQNWLIHLHYIRKDYEACKAVIKEQLQETQGLCEYAIYVQALIFRLEGNIQESLELFQTCAVLSPQSADNLKQVARSLFLLGKHKAAIEVYNEAAKLNQKDWEISHNLGVCYIYLKQFNKAQDQLHNALNLNRHDLTYIMLGKIHLLEGDLDKAIEVYKKAVEFSPENTELLTTLGLLYLQLGIYQKAFEHLGNALTYDPTNYKAILAAGSMMQTHGDFDVALTKYRVVACAVPESPPLWNNIGMCFFGKKKYVAAISCLKRANYLAPFDWKILYNLGLVHLTMQQYASAFHFLSAAINFQPKMGELYMLLAVALTNLEDIENAKRAYAEAVHLDKCNPLVNLNYAVLLYNQGEKKNALAQYQEMEKKVSLLKDNSSLEFDSEMVEMAQKLGAALQVGEALVWTKPVKDPKSKHQTTSTSKPASFQQPLGSNQALGQAMSSAAAYRTLPSGAGGTSQFTKPPSLPLEAEPAVESSPTETSEQIREK [P501A] | with no effect
3 | MAEERVATRTQFPVSTESQKPRQKKAPEFPILEKQNWLIHLHYIRKDYEACKAVIKEQLQETQGLCEYAIYVQALIFRLEGNIQESLELFQTCAVLSPQSADNLKQVARSLFLLGKHKAAIEVYNEAAKLNQKDWEISHNLGVCYIYLKQFNKAQDQLHNALNLNRHDLTYIMLGKIHLLEGDLDKAIEVYKKAVEFSPENTELLTTLGLLYLQLGIYQKAFEHLGNALTYDPTNYKAILAAGSMMQTHGDFDVALTKYRVVACAVPESPPLWNNIGMCFFGKKKYVAAISCLKRANYLAPFDWKILYNLGLVHLTMQQYASAFHFLSAAINFQPKMGELYMLLAVALTNLEDIENAKRAYAEAVHLDKCNPLVNLNYAVLLYNQGEKKNALAQYQEMEKKVSLLKDNSSLEFDSEMVEMAQKLGAALQVGEALVWTKPVKDPKSKHQTTSTSKPASFQQPLGSNQALGQAMSSAAAYRTLPSGAGGTSQFTKPPSLPLEKEPAVESSPTETSEQIREK [P501K] | with no effect
4 | MAEERVATRTQFPVSTESQKPRQKKAPEFPILEKQNWLIHLHYIRKDYEACKAVIKEQLQETQGLCEYAIYVQALIFRLEGNIQESLELFQTCAVLSPQSADNLKQVARSLFLLGKHKAAIEVYNEAAKLNQKDWEISHNLGVCYIYLKQFNKAQDQLHNALNLNRHDLTYIMLGKIHLLEGDLDKAIEVYKKAVEFSPENTELLTTLGLLYLQLGIYQKAFEHLGNALTYDPTNYKAILAAGSMMQTHGDFDVALTKYRVVACAVPESPPLWNNIGMCFFGKKKYVAAISCLKRANYLAPFDWKILYNLGLVHLTMQQYASAFHFLSAAINFQPKMGELYMLLAVALTNLEDIENAKRAYAEAVHLDKCNPLVNLNYAVLLYNQGEKKNALAQYQEMEKKVSLLKDNSSLEFDSEMVEMAQKLGAALQVGEALVWTKPVKDPKSKHQTTSTSKPASFQQPLGSNQALGQAMSSAAAYRTLPSGAGGTSQFTKPPSLPLAPEPAVESSPTETSEQIREK [E500A] | with no effect
5 | MAEERVATRTQFPVSTESQKPRQKKAPEFPILEKQNWLIHLHYIRKDYEACKAVIKEQLQETQGLCEYAIYVQALIFRLEGNIQESLELFQTCAVLSPQSADNLKQVARSLFLLGKHKAAIEVYNEAAKLNQKDWEISHNLGVCYIYLKQFNKAQDQLHNALNLNRHDLTYIMLGKIHLLEGDLDKAIEVYKKAVEFSPENTELLTTLGLLYLQLGIYQKAFEHLGNALTYDPTNYKAILAAGSMMQTHGDFDVALTKYRVVACAVPESPPLWNNIGMCFFGKKKYVAAISCLKRANYLAPFDWKILYNLGLVHLTMQQYASAFHFLSAAINFQPKMGELYMLLAVALTNLEDIENAKRAYAEAVHLDKCNPLVNLNYAVLLYNQGEKKNALAQYQEMEKKVSLLKDNSSLEFDSEMVEMAQKLGAALQVGEALVWTKPVKDPKSKHQTTSTSKPASFQQPLGSNQALGQAMSSAAAYRTLPSGAGGTSQFTKPPSLPLKPEPAVESSPTETSEQIREK [E500K] | with no effect
6 | MAEERVATRTQFPVSTESQKPRQKKAPEFPILEKQNWLIHLHYIRKDYEACKAVIKEQLQETQGLCEYAIYVQALIFRLEGNIQESLELFQTCAVLSPQSADNLKQVARSLFLLGKHKAAIEVYNEAAKLNQKDWEISHNLGVCYIYLKQFNKAQDQLHNALNLNRHDLTYIMLGKIHLLEGDLDKAIEVYKKAVEFSPENTELLTTLGLLYLQLGIYQKAFEHLGNALTYDPTNYKAILAAGSMMQTHGDFDVALTKYRVVACAVPESPPLWNNIGMCFFGKKKYVAAISCLKRANYLAPFDWKILYNLGLVHLTMQQYASAFHFLSAAINFQPKMGELYMLLAVALTNLEDIENAKRAYAEAVHLDKCNPLVNLNYAVLLYNQGEKKNALAQYQEMEKKVSLLKDNSSLEFDSEMVEMAQKLGAALQVGEALVWTKPVKDPKSKHQTTSTSKPASFQQPLGSNQALGQAMSSAAAYRTLPSGAGGTSQFTKPPSLPLEPAPAVESSPTETSEQIREK [E502A] | with no effect
7 | MAEERVATRTQFPVSTESQKPRQKKAPEFPILEKQNWLIHLHYIRKDYEACKAVIKEQLQETQGLCEYAIYVQALIFRLEGNIQESLELFQTCAVLSPQSADNLKQVARSLFLLGKHKAAIEVYNEAAKLNQKDWEISHNLGVCYIYLKQFNKAQDQLHNALNLNRHDLTYIMLGKIHLLEGDLDKAIEVYKKAVEFSPENTELLTTLGLLYLQLGIYQKAFEHLGNALTYDPTNYKAILAAGSMMQTHGDFDVALTKYRVVACAVPESPPLWNNIGMCFFGKKKYVAAISCLKRANYLAPFDWKILYNLGLVHLTMQQYASAFHFLSAAINFQPKMGELYMLLAVALTNLEDIENAKRAYAEAVHLDKCNPLVNLNYAVLLYNQGEKKNALAQYQEMEKKVSLLKDNSSLEFDSEMVEMAQKLGAALQVGEALVWTKPVKDPKSKHQTTSTSKPASFQQPLGSNQALGQAMSSAAAYRTLPSGAGGTSQFTKPPSLPLEPKPAVESSPTETSEQIREK [E502K] | with no effect
8 | MAEERVATRTQFPVSTESQKPRQKKAPEFPILEKQNWLIHLHYIRKDYEACKAVIKEQLQETQGLCEYAIYVQALIFRLEGNIQESLELFQTCAVLSPQSADNLKQVARSLFLLGKHKAAIEVYNEAAKLNQKDWEISHNLGVCYIYLKQFNKAQDQLHNALNLNRHDLTYIMLGKIHLLEGDLDKAIEVYKKAVEFSPENTELLTTLGLLYLQLGIYQKAFEHLGNALTYDPTNYKAILAAGSMMQTHGDFDVALTKYRVVACAVPESPPLWNNIGMCFFGKKKYVAAISCLKRANYLAPFDWKILYNLGLVHLTMQQYASAFHFLSAAINFQPKMGELYMLLAVALTNLEDIENAKRAYAEAVHLDKCNPLVNLNYAVLLYNQGEKKNALAQYQEMEKKVSLLKDNSSLEFDSEMVEMAQKLGAALQVGEALVWTKPVKDPKSKHQTTSTSKPASFQQPLGSNQALGQAMSSAAAYRTLPSGAGGTSQFTKPPSLPLEPEKAVESSPTETSEQIREK [P503K] | with no effect
9 | MAEERVATRTQFPVSTESQKPRQKKAPEFPILEKQNWLIHLHYIRKDYEACKAVIKEQLQETQGLCEYAIYVQALIFRLEGNIQESLELFQTCAVLSPQSADNLKQVARSLFLLGKHKAAIEVYNEAAKLNQKDWEISHNLGVCYIYLKQFNKAQDQLHNALNLNRHDLTYIMLGKIHLLEGDLDKAIEVYKKAVEFSPENTELLTTLGLLYLQLGIYQKAFEHLGNALTYDPTNYKAILAAGSMMQTHGDFDVALTKYRVVACAVPESPPLWNNIGMCFFGKKKYVAAISCLKRANYLAPFDWKILYNLGLVHLTMQQYASAFHFLSAAINFQPKMGELYMLLAVALTNLEDIENAKRAYAEAVHLDKCNPLVNLNYAVLLYNQGEKKNALAQYQEMEKKVSLLKDNSSLEFDSEMVEMAQKLGAALQVGEALVWTKPVKDPKSKHQTTSTSKPASFQQPLGSNQALGQAMSSAAAYRTLPSGAGGTSQFTKPPSLPLEPEAAVESSPTETSEQIREK [P503A] | with no effect
10 | MAEERVATRTQFPVSTESQKPRQKKAPEFPILEKQNWLIHLHYIRKDYEACKAVIKEQLQETQGLCEYAIYVQALIFRLEGNIQESLELFQTCAVLSPQSADNLKQVARSLFLLGKHKAAIEVYNEAAKLNQKDWEISHNLGVCYIYLKQFNKAQDQLHNALNLNRHDLTYIMLGKIHLLEGDLDKAIEVYKKAVEFSPENTELLTTLGLLYLQLGIYQKAFEHLGNALTYDPTNYKAILAAGSMMQTHGDFDVALTKYRVVACAVPESPPLWNNIGMCFFGKKKYVAAISCLKRANYLAPFDWKILYNLGLVHLTMQQYASAFHFLSAAINFQPKMGELYMLLAVALTNLEDIENAKRAYAEAVHLDKCNPLVNLNYAVLLYNQGEKKNALAQYQEMEKKVSLLKDNSSLEFDSEMVEMAQKLGAALQVGEALVWTKPVKDPKSKHQTTSTSKPASFQQPLGSNQALGQAMSSAAAYRTLPSGAGGTSQFTKPPSLPLEPEEAVESSPTETSEQIREK [P503E] | with no effect
11 | MAEERVATRTQFPVSTESQKPRQKKAPEFPILEKQNWLIHLHYIRKDYEACKAVIKEQLQETQGLCEYAIYVQALIFRLEGNIQESLELFQTCAVLSPQSADNLKQVARSLFLLGKHKAAIEVYNEAAKLNQKDWEISHNLGVCYIYLKQFNKAQDQLHNALNLNRHDLTYIMLGKIHLLEGDLDKAIEVYKKAVEFSPENTELLTTLGLLYLQLGIYQKAFEHLGNALTYDPTNYKAILAAGSMMQTHGDFDVALTKYRVVACAVPESPPLWNNIGMCFFGKKKYVAAISCLKRANYLAPFDWKILYNLGLVHLTMQQYASAFHFLSAAINFQPKMGELYMLLAVALTNLEDIENAKRAYAEAVHLDKCNPLVNLNYAVLLYNQGEKKNALAQYQEMEKKVSLLKDNSSLEFDSEMVEMAQKLGAALQVGEALVWTKPVKDPKSKHQTTSTSKPASFQQPLGSNQALGQAMSSAAAYRTLPSGAGGTSQFTKPPSLPLEPEPKVESSPTETSEQIREK [A504K] | with no effect
12 | MAEERVATRTQFPVSTESQKPRQKKAPEFPILEKQNWLIHLHYIRKDYEACKAVIKEQLQETQGLCEYAIYVQALIFRLEGNIQESLELFQTCAVLSPQSADNLKQVARSLFLLGKHKAAIEVYNEAAKLNQKDWEISHNLGVCYIYLKQFNKAQDQLHNALNLNRHDLTYIMLGKIHLLEGDLDKAIEVYKKAVEFSPENTELLTTLGLLYLQLGIYQKAFEHLGNALTYDPTNYKAILAAGSMMQTHGDFDVALTKYRVVACAVPESPPLWNNIGMCFFGKKKYVAAISCLKRANYLAPFDWKILYNLGLVHLTMQQYASAFHFLSAAINFQPKMGELYMLLAVALTNLEDIENAKRAYAEAVHLDKCNPLVNLNYAVLLYNQGEKKNALAQYQEMEKKVSLLKDNSSLEFDSEMVEMAQKLGAALQVGEALVWTKPVKDPKSKHQTTSTSKPASFQQPLGSNQALGQAMSSAAAYRTLPSGAGGTSQFTKPPSLPLEPEPEVESSPTETSEQIREK [A504E] | with no effect
